Substrate in data set [1]: C[C@@](O)(CCOP(=O)(O)O)CC(=O)O
Briefly: purified protein, by the assay type. Conditions: other: MVAP 0.100-4.0 mM, 4 mM ATP, pH 7.5, brackets: standard error.

In data set [2] the test system is E. coli DH1. Briefly: Growth of E. coli DH1 under the screening conditions (MEP pathway blocked by fosmidomycin, IPP-bypass pathway + IPK). The settings on record: for growth under fosmidomycin selection pressure: screening platform.
The test system of data set [3] is E. coli DH1. Briefly: Isopentenol production in E. coli via IPP-bypass MVA pathway (GC-FID). The format is cell-based, Escherichia coli.
Substrate in data set [4]: C[C@@](O)(CCOP(=O)(O)O)CC(=O)O
Briefly: In vitro kinetics of MVAP decarboxylation by PMDsc I145A (coupled assay). The format is biochemical, Saccharomyces cerevisiae. The settings on record: other: MVAP 0.100-4.0 mM, 4 mM ATP, pH 7.5, brackets: standard error.

For data set [5] the following is noted: cited from earlier work; for activity of WT for phosphomevalonate (MVAP): previous study (Kang 2015).
Data set [6] is described as follows: In vitro enzyme kinetics of PMDsc variants (pyruvate kinase/lactate dehydrogenase coupled assay). The format is biochemical.
Substrate in data set [7]: C[C@@](O)(CCOP(=O)(O)O)CC(=O)O
Briefly: In vitro kinetics of MVAP decarboxylation by PMDsc R147K (coupled assay). Type of data set: biochemical, Saccharomyces cerevisiae. Conditions: other: MVAP 0.100-4.0 mM, 4 mM ATP, pH 7.5, brackets: standard error.

Substrate in data set [8]: C[C@@](O)(CCOP(=O)(O)O)CC(=O)O
Briefly: In vitro kinetics of MVAP decarboxylation by PMDsc M212Q (coupled assay). The format is biochemical, Saccharomyces cerevisiae. Conditions: other: MVAP 0.100-4.0 mM, 4 mM ATP, pH 7.5, brackets: standard error.

Substrate in data set [9]: C[C@@](O)(CCOP(=O)(O)O)CC(=O)O
The experiment in a line: In vitro kinetics of MVAP decarboxylation by PMDsc S186C (coupled assay). The format is biochemical, Saccharomyces cerevisiae. The settings on record: other: MVAP 0.100-4.0 mM, 4 mM ATP, pH 7.5, brackets: standard error.

[10] abbreviates: 10-fold higher inducer concentration (100 nM aTc).
Setting [11] is: Table 2, screening conditions, standard deviation in brackets.
The mark [12] stands for this setting: text and figure legends, 48 hours after induction.
The mark [13] stands for this setting: compared with wild type or library mutants.
Where [14] appears, read: Table 2, MVAP 0.100-4.0 mM, standard error in brackets.
The mark [15] stands for this setting: Table 2, MVAP, standard error in brackets.

Residue numbers refer to the chain shown, from its start. In names and notes the source's numbering stands. Several values for one entry are separate records, joined by “and”; a condition that tells them apart may be missing. Equal values may be shown once.

B1: Saccharomyces cerevisiae diphosphomevalonate decarboxylase (PMDsc), wild type, SEQ ID NO: 1 (Saccharomyces cerevisiae S288C) (protein)
chain: MTVYTASVTAPVNIATLKYWGKRDTKLNLPTNSSISVTLSQDDLRTLTSAATAPEFERDTLWLNGEPHSIDNERTQNCLRDLRQLRKEMESKDASLPTLSQWKLHIVSENNFPTAAGLASSAAGFAALVSAIAKLYQLPQSTSEISRIARKGSGSACRSLFGGYVAWEMGKAEDGHDSMAVQIADSSDWPQMKACVLVVSDIKKDVSSTQGMQLTVATSELFKERIEHVVPKRFEVMRKAIVEKDFATFAKETMMDSNSFHATCLDSFPPIFYMNDTSKRIISWCHTINQFYGETIVAYTFDAGPNAVLYYLAENESKLFAFIYKLFGSVPGWDKKFTTEQLEAFNHQFESSNFTARELDLELQKDVARVILTQVGSGPQETNESLIDAKTGLPKE
On to B1, for which the Km in [1] was determined as 2.3 ± 0.2 mM. Besides, the kcat in [1] is reported as 0.15 (0.01) sec^−1. Also, the kcat/Km in [1] was 0.066 (0.007) mM^−1 sec^−1. In addition, the Growth rate is 0.83±0.01 hr^1 with E. coli DH1 [2] (setting [10]), 0.39 (0.02) hr^−1 in the data set on E. coli DH1 [2] (setting [11]), 0.39 h⁻¹ in the data set on E. coli DH1 [2] (Table 3) and 0.4 h⁻¹ with E. coli DH1 [2] (screening conditions). The “growth rate (reference line FIG. 6)” value with E. coli DH1 [2] (FIG. 6 legend) is 0.4. In addition, in the data set with E. coli DH1 [3], the “48 hr Titer (isopentenol)” value is 475 (40) mg/L and 475 mg/L. Further, the isopentenol titer in the data set on E. coli DH1 [3] (setting [12]) is 475.1 mg/L; in the data set on E. coli DH1 [3] (text and figure legends, 48 hours after induction, listed as wild type), 475 mg/L.

B2: Saccharomyces cerevisiae diphosphomevalonate decarboxylase (PMDsc, SEQ ID NO: 1) variant I145A (Saccharomyces cerevisiae S288C; I145A) (protein)
chain: B1 chain with I145A
notes: His tag; made in house; host or cells: E. coli Rosetta (DE3)
On to B2, for which, in data set [4], the Km is on record as 2 (1) mM, the kcat was 0.029 (0.004) sec^−1 and the kcat/Km is listed as 0.01 (0.01) mM^−1 sec^−1. For the same molecule, the Growth rate with E. coli DH1 [2] (setting [11]) is listed as 0.17 (0.00) hr^−1. The “48 hr Titer (isopentenol)” value with E. coli DH1 [3] is listed as 623 (140) mg/L.

B3: E144D (protein)
chain: B1 chain with E144D
Take B3: in the data set with E. coli DH1 [3] (setting [13]), the “isopentenol titer” value is recorded as “increased isopentenol production titers”.

B4: K22M: PMDsc mutant K22M with decreased activity, previous study (protein)
chain: B1 chain with K22M
B4: in data set [5], the “activity of WT for phosphomevalonate (MVAP)” value is 25%. Besides, the Growth rate in the data set on E. coli DH1 [2] (setting [10]) came out at 0.83±0.01 hr^1. For the same molecule, in the data set on E. coli DH1 [2], the “growth under fosmidomycin selection pressure” value was “decreased growth rates relative to wild type”.

B5: K22Y: PMDsc mutant K22Y (protein)
chain: B1 chain with K22Y
Consider B5, for which, in the data set with E. coli DH1 [2] (setting [11]), the Growth rate is 0.13 (0.11) hr^−1. In addition, in the data set with E. coli DH1 [3], the “48 hr Titer (isopentenol)” value is recorded as 22 (8) mg/L. This molecule also had an isopentenol titer in the data set on E. coli DH1 [3] (setting [12]) of 22 ± 8 mg/L.

B6: R74G-R147K: PMDsc double mutant (protein)
chain: B1 chain with R74G, R147K
In the case of B6, in the data set on E. coli DH1 [2] (setting [11]), the Growth rate is given as 0.84 (0.04) hr^−1. For the same molecule, the kcat in data set [6] (setting [14]) is on record as 0.22 (0.01) sec^−1. Besides, the Km in data set [6] (setting [15]) was 530 µM. Also, in the data set on E. coli DH1 [3], the “isopentenol titer relative to wild type” value came out at 1.9 fold and the “48 hr Titer (isopentenol)” value is on record as 909 (25) mg/L.

B7: Saccharomyces cerevisiae diphosphomevalonate decarboxylase (PMDsc, SEQ ID NO: 1) variant R147K (Saccharomyces cerevisiae S288C; R147K) (protein)
chain: B1 chain with R147K
notes: as for B2
As for B7, the Growth rate in the data set with E. coli DH1 [2] (setting [11]) was 0.56 (0.02) hr^−1. For the same molecule, the “48 hr Titer (isopentenol)” value in the data set with E. coli DH1 [3] was 793 (22) mg/L. The “isopentenol titer” value with E. coli DH1 [3] (setting [13]) is given as “increased isopentenol production titers”. For the same molecule, in [7], the Km is on record as 0.5 (0.1) mM, the kcat is on record as 0.149 (0.006) sec^−1 and the kcat/Km is listed as 0.32 (.09) mM^−1 sec^−1.

B8: Q140L (protein)
chain: B1 chain with Q140L
As for B8, the “isopentenol titer” value in the data set on E. coli DH1 [3] (setting [13]) is reported as “increased isopentenol production titers”.

B9: R74G-R147K-Q140L: PMDsc triple mutant (protein)
chain: B1 chain with R74G, Q140L, R147K
Consider B9, for which the kcat in [6] (setting [14]) is reported as 0.06 (0.01) sec^−1. In data set [6] (setting [15]), the Km came to 2000 µM. For the same molecule, the “48 hr Titer (isopentenol)” value with E. coli DH1 [3] was 401 (10) mg/L.

B10: Saccharomyces cerevisiae diphosphomevalonate decarboxylase (PMDsc, SEQ ID NO: 1) variant M212Q (Saccharomyces cerevisiae S288C; M212Q) (protein)
chain: B1 chain with M212Q
notes: as for B2
As for B10, in [8], the Km was 0.7 (0.2) mM, the kcat is 0.35 (0.02) sec^−1 and the kcat/Km is listed as 0.5 (0.1) mM^−1 sec^−1. For the same molecule, the Growth rate in the data set with E. coli DH1 [2] (setting [11]) is on record as 0.09 (0.01) hr^−1. In addition, the “48 hr Titer (isopentenol)” value in the data set on E. coli DH1 [3] was 601 (76) mg/L. For the same molecule, the “isopentenol titer” value with E. coli DH1 [3] (setting [13]) is given as “significantly increase isopentenol titer”.

B11: Saccharomyces cerevisiae diphosphomevalonate decarboxylase (PMDsc, SEQ ID NO: 1) variant R74G (Saccharomyces cerevisiae S288C; R74G) (protein)
chain: B1 chain with R74G
For B11, in [1], the Km is 3.4 (1.0) mM, the kcat is 0.14 (0.02) sec^−1 and the kcat/Km was 0.04 (0.01) mM^−1 sec^−1. Further, in the data set with E. coli DH1 [2] (setting [11]), the Growth rate was 0.81 (0.03) hr^−1. The Growth rate in the data set with E. coli DH1 [2] (Table 3) came out at 0.81 h⁻¹. The “48 hr Titer (isopentenol)” value in the data set with E. coli DH1 [3] was 975 (96) mg/L and 975 mg/L.

B12: S155E (protein)
chain: B1 chain with S155E
Regarding B12, the “growth under fosmidomycin selection pressure” value in the data set with E. coli DH1 [2] is given as “impaired growth”.

B13: V230E: PMDsc mutant V230E (protein)
chain: B1 chain with V230E
Consider B13, for which the Growth rate in the data set with E. coli DH1 [2] (setting [11]) is 0.21 (0.18) hr^−1; in the data set on E. coli DH1 [2] (Table 3) it was 0.2 h⁻¹. Moreover, the Ki in data set [6] (MVAP up to 100 mM, read-out: KI (substrate inhibition)) was 10 mM. Also, the kcat in data set [6] (setting [14]) was 0.07 (0.01) sec^−1; in [6] (Table 3) it was 0.07 s⁻¹. Also, the Km in data set [6] (setting [15]) and in [6] (Table 3) was 800 µM throughout. Besides, in data set [6] (Table 3, observed turnover number calculated at 100 mM MVAP), the kobs was 0.006 s⁻¹. Moreover, the “48 hr Titer (isopentenol)” value with E. coli DH1 [3] is 278 (91) mg/L and 278 mg/L.

B14: Saccharomyces cerevisiae diphosphomevalonate decarboxylase (PMDsc, SEQ ID NO: 1) variant S186C (Saccharomyces cerevisiae S288C; S186C) (protein)
chain: B1 chain with S186C
notes: as for B2
Take B14: in data set [9], the Km is 0.8 (0.2) mM, the kcat was 0.07 (0.01) sec^−1 and the kcat/Km is given as 0.08 (0.02) mM^−1 sec^−1. In addition, the Growth rate in the data set on E. coli DH1 [2] (setting [11]) is recorded as 0.30 (0.02) hr^−1. The “48 hr Titer (isopentenol)” value in the data set with E. coli DH1 [3] is reported as 596 (110) mg/L.

B15: R74G-E144D (protein)
chain: B1 chain with R74G, E144D
For the molecule B15, in the data set with E. coli DH1 [3], the “isopentenol titer relative to wild type” value was determined as 1.6 fold.

B16: S208E: inactive PMDsc mutant, negative control (protein)
chain: B1 chain with S208E
Turning to B16, in data set [5] (Kang et al., 2016), the “activity toward MVAP” value was “inactive toward MVAP”. Further, the “activity of WT for phosphomevalonate (MVAP)” value in [5] was “not detectible”. Also, the “growth under fosmidomycin selection pressure” value in the data set with E. coli DH1 [2] was “none of three IPK-expressing DH1 strains (SP4, SP5 and SP6) could grow”.
